# Like-named read-outs stand apart in the source and are kept apart here.
# T1: LuxR R9/11A (Vibrio alginolyticus, UniProt B4X9Q4 1-204, R9A;R11A)
# T1 sequence: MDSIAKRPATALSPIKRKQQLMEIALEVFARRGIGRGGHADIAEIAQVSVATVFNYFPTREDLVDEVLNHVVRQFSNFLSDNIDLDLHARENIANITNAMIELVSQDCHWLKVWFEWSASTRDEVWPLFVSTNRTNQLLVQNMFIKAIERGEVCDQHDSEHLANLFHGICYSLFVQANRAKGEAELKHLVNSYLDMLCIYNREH
# T2: LuxR K16A (Vibrio alginolyticus, UniProt B4X9Q4 1-204, K16A)
# T2 sequence: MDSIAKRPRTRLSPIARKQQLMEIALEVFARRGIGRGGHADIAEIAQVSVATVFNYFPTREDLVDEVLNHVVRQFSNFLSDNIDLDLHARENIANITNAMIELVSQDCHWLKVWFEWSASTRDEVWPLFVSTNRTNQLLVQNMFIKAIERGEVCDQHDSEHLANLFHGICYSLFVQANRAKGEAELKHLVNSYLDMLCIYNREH
# T3: LuxR R11A (Vibrio alginolyticus, UniProt B4X9Q4 1-204, R11A)
# T3 sequence: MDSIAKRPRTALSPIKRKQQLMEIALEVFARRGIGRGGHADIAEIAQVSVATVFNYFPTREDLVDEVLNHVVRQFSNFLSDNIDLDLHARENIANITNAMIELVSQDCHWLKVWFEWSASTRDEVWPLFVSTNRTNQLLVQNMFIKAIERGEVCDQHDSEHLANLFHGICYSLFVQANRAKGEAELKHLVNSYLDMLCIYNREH
# T4: LuxR R9A (Vibrio alginolyticus, UniProt B4X9Q4 1-204, R9A)
# T4 sequence: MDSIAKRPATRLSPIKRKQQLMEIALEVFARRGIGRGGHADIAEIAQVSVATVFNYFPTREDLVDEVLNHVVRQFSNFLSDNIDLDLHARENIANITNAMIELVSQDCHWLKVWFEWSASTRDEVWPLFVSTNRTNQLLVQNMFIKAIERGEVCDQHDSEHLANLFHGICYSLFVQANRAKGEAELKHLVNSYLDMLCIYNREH
# T5: LuxR (Vibrio alginolyticus, UniProt B4X9Q4 1-204)
# T5 sequence: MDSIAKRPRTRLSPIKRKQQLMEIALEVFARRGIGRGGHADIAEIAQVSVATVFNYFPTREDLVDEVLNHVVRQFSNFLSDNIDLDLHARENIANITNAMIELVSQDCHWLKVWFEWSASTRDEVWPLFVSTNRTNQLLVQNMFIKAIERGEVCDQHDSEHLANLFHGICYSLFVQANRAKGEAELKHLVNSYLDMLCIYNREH
# T6: LuxR ΔLuxR-arm (Vibrio alginolyticus, UniProt B4X9Q4 12-204, del2-11)
# T6 sequence: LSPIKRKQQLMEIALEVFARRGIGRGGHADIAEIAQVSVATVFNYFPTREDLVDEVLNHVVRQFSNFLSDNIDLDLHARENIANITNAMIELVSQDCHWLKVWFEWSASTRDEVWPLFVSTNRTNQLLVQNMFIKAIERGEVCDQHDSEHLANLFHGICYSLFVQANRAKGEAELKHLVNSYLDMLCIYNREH
# B1: actDNA 51-bp probe (dsDNA)
# DNA 1: CTAAATTTATCAATAATAATGACATTACTGTATATAAATTGTTCTACAGAT
# DNA 2: ATCTGTAGAACAATTTATATACAGTAATGTCATTATTATTGATAAATTTAG
# B2: AM3 (T18A) (dsDNA)
# DNA 1: CTAAATTTATCAATAATAATGACATTACTGTAAATAAATTGTTCTACAGAT
# DNA 2: ATCTGTAGAACAATTTATTTACAGTAATGTCATTATTATTGATAAATTTAG
# B3: AM2 (A4T, T18A) (dsDNA)
# DNA 1: CTAAATTTATCAATAATATTGACATTACTGTAAATAAATTGTTCTACAGAT
# DNA 2: ATCTGTAGAACAATTTATTTACAGTAATGTCAATATTATTGATAAATTTAG
# B4: AM4 (A17C, T18A) (dsDNA)
# DNA 1: CTAAATTTATCAATAATAATGACATTACTGTCAATAAATTGTTCTACAGAT
# DNA 2: ATCTGTAGAACAATTTATTGACAGTAATGTCATTATTATTGATAAATTTAG
# B5: AM5 (A1T, A4T, A22T) (dsDNA)
# DNA 1: CTAAATTTATCAATATTATTGACATTACTGTATATATATTGTTCTACAGAT
# DNA 2: ATCTGTAGAACAATATATATACAGTAATGTCAATAATATTGATAAATTTAG
# B6: AM6 (A4T) (dsDNA)
# DNA 1: CTAAATTTATCAATAATATTGACATTACTGTATATAAATTGTTCTACAGAT
# DNA 2: ATCTGTAGAACAATTTATATACAGTAATGTCAATATTATTGATAAATTTAG
# B7: AM1 (T2A) (dsDNA)
# DNA 1: CTAAATTTATCAATAAAAATGACATTACTGTATATAAATTGTTCTACAGAT
# DNA 2: ATCTGTAGAACAATTTATATACAGTAATGTCATTTTTATTGATAAATTTAG
# B8: AM7 (A3C) (dsDNA)
# DNA 1: CTAAATTTATCAATAATCATGACATTACTGTATATAAATTGTTCTACAGAT
# DNA 2: ATCTGTAGAACAATTTATATACAGTAATGTCATGATTATTGATAAATTTAG
# B9: repDNA 51-bp probe (dsDNA)
# DNA 1: CTAAATTTATCAATATTATTGATAAAATTATCAATATATTGTTCTACAGAT
# DNA 2: ATCTGTAGAACAATATATTGATAATTTTATCAATAATATTGATAAATTTAG
# B10: GC-rich control 51-bp (dsDNA)
# DNA 1: CTAAATTTATCAATACCGCGTCACGGAGGGGTGCGCCATTGTTCTACAGAT
# DNA 2: ATCTGTAGAACAATGGCGCACCCCTCCGTGACGCGGTATTGATAAATTTAG
# Tests used:
# Assay in all cases: EMSA
# LuxR R9/11A = target: T1, LuxR R9/11A
# LuxR K16A = target: T2, LuxR K16A
# LuxR R11A = target: T3, LuxR R11A
# LuxR R9A = target: T4, LuxR R9A
# LuxR [1] = target: T5, LuxR
# LuxR ΔLuxR-arm = target: T6, LuxR ΔLuxR-arm
# LuxR [2] = target: T5, LuxR; remark: listed apart in the source
# LuxR [3] = target: T5, LuxR; remark: listed apart in the source
binder,measurement,setting,value
B1,binding result,LuxR R9/11A,no binding
same,Kd,LuxR K16A,329 nM
same,binding result,LuxR R11A,no binding
same,Kd,LuxR R9A,698 nM
same,Kd,LuxR [1],449 nM
same,binding result,LuxR ΔLuxR-arm,no binding
B2,binding result,LuxR [2],binds
B3,binding result,LuxR [2],binds
B4,binding result,LuxR [2],binds
B5,binding result,LuxR [3],binds
B6,binding result,LuxR [3],binds
B7,Kd,LuxR [1],1690 nM
B8,Kd,LuxR [1],636 nM
B9,Kd,LuxR R11A,1060 nM
same,Kd,LuxR R9A,434 nM
same,Kd,LuxR [1],157 nM
B10,binding result,LuxR [1],no binding
